Data as given in the RNAGym collection of RNA variant scans (doi:10.1093/nar/gkz1192).

B1: CPEB3 Ribozyme (parent)
chain: UAACAGGGGGCCACAGCAGAAGCGUUCACGUCGCAGCCCCUGUCAGAUUCUGGUGAAUCUGCGAAUUCUGCUGUAUAUCUC

Variants of: B1
Assay: self-cleavage, relative activity (ratio to wild type); higher = more cleavage; in vitro, sequencing
Method in brief: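 Relative activity compares each variant's cleaved/total read fraction with that of the unmutated ribozyme. To get these fractions, barcoded CPEB3 ribozyme libraries from rounds of error-prone PCR were transcribed with T7 RNA polymerase for 5 hours at 37°C and then given 15 min of DNase I treatment before EDTA was added. The RNAs were reverse transcribed with template switching and sequenced on Illumina, and DNA sequencing linked barcodes to variants. A minimum of 5 reads applied, and three batches were averaged.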

Variant | self-cleavage
C4A C59A | 0.33
A3U U49C | 0.51
A3U U49A | 0.47
C4G G55U | 1.12
A3U G46A | 0.54
A3U G7U | 0.13
A3U G7A | 0.47
A3U G7C | 0.35
A3G G22U | 0.15
A3G G22A | 0.29
A3U G63U | 1.19
A3U G63A | 1.03
A3U G70A | 0.63
A3U G70U | 0.19
A3U A28G | 0.88
A3U A28U | 1.13
A3U A28C | 0.91
A3G C11U | 0.51
A3G C11A | 0.32
A3G C11G | 0.54
C4A | 1.22
C4G | 1.1
A3U G42U | 0.16
A3G C68U | 0.79

Variant | self-cleavage
A3G C68G | 0.47
A3G C68A | 0.46
A3G C71G | 0.57
A3G C71U | 0.64
A3G C71A | 0.27
A3G G9A | 0.53
A3G G9U | 0.34
A3G G9C | 0.6
C4A U78C | 0.74
A3G C12A | 1.16
A3G C12U | 1.22
A3U C38G | 0.31
A3U C38U | 0.97
A3G U58G | 0.39
A3G U58A | 0.43
A3G U58C | 0.54
A3G U41C | 0.98
A3G U41G | 0.17
A3G U41A | 0.3
A3G C81G | 1.17
A3G C27G | 0.43
A3G C27U | 0.53
A3G C27A | 0.45
A3G U78C | 0.99

Variant | self-cleavage
A3G U78A | 1.17
A3U C40A | 0.54
C4A C79G | 1.25
A3G G70A | 0.69
A3U U48C | 0.63
A3U U48A | 0.56
A3U A21G | 0.79
A3U A21U | 0.56
A3G C39G | 0.34
A3G C39A | 0.05
A3G C39U | 0.64
A3U G6A | 0.62
A3U G6U | 0.59
A3U U51A | 1.02
A3U U51G | 1.08
A3U U51C | 1.15
A3G G10C | 0.35
A3G G10A | 0.46
C4A U41A | 0.41
A3G U80G | 1.12
A3G U80A | 1.11
A3G U80C | 1.07
A3G G33U | 0.11
A3G G33C | 0.31

Variant | self-cleavage
A3G G33A | 0.38
A3G G30A | 0.44
A3U U58C | 0.54
A3U U58A | 0.39
C4G U26C | 0.96
C4G U26A | 1.19
C4G U49A | 0.65
A3G C40A | 0.32
A3G C40G | 0.5
A3G C40U | 0.64
A3G U69C | 0.6
A3G U69A | 0.69
A3G U69G | 0.76
A3G U60G | 0.45
A3G U60C | 0.52
A3G U60A | 0.47
A3U C17A | 0.26
A3U C17G | 0.53
A3U C17U | 0.5
A3U A57U | 0.85
A3U A57G | 1.04
A3U U72G | 1.09
A3U U72A | 1
A3U U72C | 1.12

Variant | self-cleavage
A3U C27U | 0.6
A3G C79U | 1
A3G C79A | 1.05
A3G U26C | 0.65
A3G U26A | 0.9
A3U U26A | 1.03
A3U U26G | 0.23
A3U U26C | 0.64
A3U G22U | 0.32
A3U G22A | 0.45
A3U U43G | 0.34
A3U U43A | 0.77
A3U U43C | 0.77
A3U G16A | 0.43
A3U C59U | 0.66
A3U C59A | 0.51
A3G G19U | 0.41
A3U U54A | 1.19
A3U U54C | 1.04
C4A C62U | 0.23
A3U G61A | 1.01
A3U G61C | 0.5
A3U U78G | 1.2
A3U U78C | 0.9

Variant | self-cleavage
A3G A77U | 0.99
A3G A77C | 1.03
A3G A77G | 1.03
A3G C34U | 0.25
A3G C34A | 0.2
A3G C34G | 0.43
A3G C44A | 0.42
C4A U26C | 1.21
C4A U58A | 0.67
C4A U58C | 0.76
A3G G53C | 1.13
A3G G53A | 1.02
C4G G36U | 0.28
A3G U31G | 0.76
A3G U31C | 0.84
A3G U31A | 0.61
A3G C29A | 0.58
A3G C29U | 0.59
A3G C29G | 0.43
A3U U74A | 1.26
A3G G24A | 0.6
A3G C59A | 0.62
A3G C59U | 0.74
A3U G52A | 1.1

Variant | self-cleavage
A3G C17G | 0.55
A3G C17A | 0.33
A3G C17U | 0.85
A3U C79U | 1.21
A3U U66C | 0.55
A3U A13G | 0.89
A3U A13C | 0.96
A3U A13U | 1.16
A3U C11G | 0.4
A3G G7A | 0.47
A3G G7U | 0.45
C4A U74C | 1.22
A3G G63A | 0.75
A3G G63C | 1.06
A3G G63U | 1.12
A3G G61A | 0.53
A3G G61U | 0.8
A3U G19U | 0.4
C4A U66C | 0.24
A3G U51G | 0.98
A3G U51C | 0.94
A3G U51A | 1
A3G C14A | 1.13
A3G C14U | 1.12

Variant | self-cleavage
A3U U76G | 1.13
A3G C23U | 0.38
A3G C23G | 0.33
A3G C23A | 0.22
C4A U60A | 0.89
C4A A21G | 0.92
C4G A77G | 1.19
A3U C34U | 0.51
A3U C32G | 0.47
A3G U76A | 1.23
A3G U76C | 1.15
A3U A45U | 0.73
A3U A45G | 1.03
C4A G8A | 0.47
A3U A15U | 1.06
A3U A15G | 0.83
A3U U41A | 0.31
A3U U41C | 1.05
A3U A5G | 0.79
A3U A5U | 1.18
C4A G9A | 0.64
A3U C12A | 1.14
A3U C81G | 1.21
C4A A45U | 1.16

Variant | self-cleavage
A3G A65G | 0.55
A3G A65U | 0.25
C4G A13G | 1.08
C4G A13C | 1.17
A3U | 1.06
C4A G6A | 0.43
A3U U60C | 0.59
A3U U60A | 0.19
A3U C4U | 1.17
A3U C4A | 1.22
A3G C50A | 0.82
A3G C50U | 0.94
A3G C50G | 0.8
C4A U25C | 0.52
A3G U49C | 0.49
A3G U49A | 0.69
A3G U43A | 0.99
A3G U43C | 0.49
A3G G36U | 0.26
A3G G36A | 0.2
C4G A57G | 0.98
A3G C4U | 1.11
A3G C4G | 1.15
A3G C4A | 1.17

Variant | self-cleavage
A3G U66G | 0.62
A3G U66C | 0.4
A3G U66A | 0.64
A3G A64U | 0.45
A3G G6A | 0.59
A3G G6U | 0.57
A3G G6C | 0.77
A3U C68A | 0.44
A3U C68G | 0.44
A3U U69A | 0.54
A3U U69C | 0.69
A3U A35U | 0.77
A3U A35G | 1.28
A3U A64G | 1.06
A3U A64U | 0.69
A3U A18U | 0.56
A3U A18G | 0.8
A3G A75U | 1.12
A3G A75C | 1.07
A3G A75G | 1
A3G U72G | 1.07
A3G U72C | 1.09
A3G U72A | 0.7
A3G G46C | 0.39

Variant | self-cleavage
A3G G46A | 0.13
C4A U76A | 1.2
A3U A56G | 0.63
C4G G8C | 0.66
A3U A65U | 0.14
A3U A65G | 0.54
A3U G33U | 0.42
A3U G33A | 0.16
C4A G33U | 0.12
A3G U25G | 0.45
A3G U25A | 0.63
A3G U25C | 0.42
A3G U48G | 0.54
A3G U48C | 0.61
A3G U48A | 0.37
A3U U80C | 0.85
A3U U80A | 1.23
A3U C44U | 0.73
C4G U31C | 1.17
C4A U67C | 0.44
C4A U67A | 1
A3G U67C | 0.33
A3G U67A | 0.52
A3G U67G | 0.37

Variant | self-cleavage
C4A U80A | 1.06
C4A U80C | 1.11
A3U A75G | 1.06
A3U G8A | 0.2
C4A U72C | 1.22
C4A U72A | 0.42
C4A G10A | 0.59
A3G G8U | 0.34
A3G G8A | 0.37
A3U G9C | 0.25
A3U G9A | 0.58
C4G A21G | 1.14
A3G G52A | 1.14
A3G G52U | 1.14
A3U G10U | 0.19
A3U G10A | 0.1
A3U U31G | 1.01
A3U U31A | 0.55
A3U U31C | 1.01
C4A U69A | 0.68
C4A G30A | 0.39
C4A A20G | 1.11
A3G G55U | 1.12
C4G U41A | 0.5

Variant | self-cleavage
C4G U41C | 1.1
A3G U74G | 1.24
A3G U74A | 1.22
A3G U74C | 1.16
C4A G22C | 0.25
A3G C37A | 0.36
A3G C37U | 0.85
C4A A18U | 0.45
C4A A18G | 1.04
A3U A47G | 1.17
A3U A47U | 0.71
A3U A47C | 0.69
C4A A47G | 1.12
C4A G16U | 0.62
A3U C71U | 0.83
A3G C62A | 0.59
A3G C62G | 0.32
A3G C62U | 0.39
A3G C32U | 0.45
A3G C32G | 0.17
A3G C32A | 0.14
A3U G73C | 1.25
A3U C29U | 0.71
A3G G73A | 1.22

Variant | self-cleavage
A3G C38G | 1.02
A3G C38U | 0.83
A3U G36A | 0.32
A3U U67C | 0.3
A3U U67A | 0.75
C4A C44U | 0.33
A3G U54C | 0.98
A3G U54G | 0.82
A3G U54A | 0.98
A3U A77U | 1.25
A3U A77G | 1.04
C4A U31A | 0.88
A3G G16C | 0.47
A3G G16A | 0.38
A3G G16U | 0.62
C4G U51A | 1.15
C4A U51C | 1.14
A3U U25A | 0.29
A3U U25C | 0.34
A3U A20C | 0.21
A3U A20G | 0.94
A3U A20U | 0.45
